Data from publication PMC12446779, “Structural basis of transglucosylation in dextran dextrinase, a homolog of anomer-inverting GH15 glucoside hydrolases” (The Journal of Biological Chemistry, 2025).

Substrate: OC[C@H]1O[C@H](F)[C@H](O)[C@@H](O)[C@@H]1O
Assay: fluoride release, colorimetric (Alfusone), Michaelis-Menten fit
Assay type: biochemical, Gluconobacter oxydans
Conditions: 130 mM sodium acetate pH 4.2, 35 °C, 0.2 mg/ml BSA
From the text: fluoride release, colorimetric (Alfusone), Michaelis-Menten fit on Δ382C (DDase-Δ382C)

Protein	Km [mM]	kcat [s⁻¹]	kcat/Km [M⁻¹ s⁻¹]
Δ382C (DDase-Δ382C) (Gluconobacter oxydans) (protein, C-terminal truncation Met1-Ser902 (domains N1, N2, HLH, A); N-terminal His6 tag (…) kept; E. coli BL21-CodonPlus(DE3)-RIL; 921 residues with tag; dimer 195,604 Da) MADNSDEQFVASDYTLLGDATDDPNGMVDMPAGQEPATTNAVPSGVEYNFLAATAGYYTVSFAYQNTANAAAYEQLSINGQNEPGVVEFDQTSGASTGTAYASVYLKAGLNSVELNNQTTDETNGLTPVPEDQLQASPAFQIGTSTVAAGASPSQETSAQSLAISNQTDMQAFVQGESMAPKQQWTFGPSLSELHVGSNDELNQLDFNAVWFRNVTPGQQAETYSPYFKSNESFDANGVLHVNYGAYSPTGQALPVQIQATYANVPNENLIVENLSLTNQNASGTQPLVWDVMNATGINPGEVSSTTWDPTHNAWIVTEDQGSGKSPLYLAIGDYQVSNSTHAAGVDGVNVRGSYSLSSGASGNPSLNAPDQGVIGGFENNGTMVGSSSGASGTNLAVGTTDSDVTLNPGQTVDLSYYLSTATSLSQLDANLDKYTNTVGSTTSSTPMTDATGASAASSWTQQTATAWDDTLNQAYNLAGSTETSGQAATAASGQTLDPTSSAAAQSAYRSSLINILQAQSPEYGSFMASTNPSYEYKVWVRDSAATAIGLDDAGLTQPADKFWRWMASVEQNGMNATYSGNASGTFSTNYGEFDQNLPIGFVAPENDSQGLFLIGSYRHYEQMLSEGQTQQAQSFISDPTVRQALVNSANWIQENIGSNGLGPADYSIWEDMYGYHTFTQVTYAEGLNAASQLASAMGEGNQAQTWATGAETIKDAILRPTTASTPGLWNAQEGHFVEMINPNGTIDNTIDADTNIAAVFGLVSPTSIYATENAQAVENALTQDNFGLSRYQNETFYQSSQWSPGGTYEAQGISPSWPQMTAYDSIVSMDSGNTTQANNDLSWIEQSYDNGGTPPGESYDWARGQPIESTSSEPVTASWYVQDLLNSTGQTSTLMPAITGQ	40 ± 4	15 ± 1	380
Δ382C (DDase-Δ382C) (Gluconobacter oxydans; E671Q) (protein, C-terminal truncation Met1-Ser902 (domains N1, N2, HLH, A); N-terminal His6 tag (…) kept; E. coli BL21-CodonPlus(DE3)-RIL; 921 residues with tag; dimer 195,604 Da) MADNSDEQFVASDYTLLGDATDDPNGMVDMPAGQEPATTNAVPSGVEYNFLAATAGYYTVSFAYQNTANAAAYEQLSINGQNEPGVVEFDQTSGASTGTAYASVYLKAGLNSVELNNQTTDETNGLTPVPEDQLQASPAFQIGTSTVAAGASPSQETSAQSLAISNQTDMQAFVQGESMAPKQQWTFGPSLSELHVGSNDELNQLDFNAVWFRNVTPGQQAETYSPYFKSNESFDANGVLHVNYGAYSPTGQALPVQIQATYANVPNENLIVENLSLTNQNASGTQPLVWDVMNATGINPGEVSSTTWDPTHNAWIVTEDQGSGKSPLYLAIGDYQVSNSTHAAGVDGVNVRGSYSLSSGASGNPSLNAPDQGVIGGFENNGTMVGSSSGASGTNLAVGTTDSDVTLNPGQTVDLSYYLSTATSLSQLDANLDKYTNTVGSTTSSTPMTDATGASAASSWTQQTATAWDDTLNQAYNLAGSTETSGQAATAASGQTLDPTSSAAAQSAYRSSLINILQAQSPEYGSFMASTNPSYEYKVWVRDSAATAIGLDDAGLTQPADKFWRWMASVEQNGMNATYSGNASGTFSTNYGEFDQNLPIGFVAPENDSQGLFLIGSYRHYEQMLSEGQTQQAQSFISDPTVRQALVNSANWIQENIGSNGLGPADYSIWQDMYGYHTFTQVTYAEGLNAASQLASAMGEGNQAQTWATGAETIKDAILRPTTASTPGLWNAQEGHFVEMINPNGTIDNTIDADTNIAAVFGLVSPTSIYATENAQAVENALTQDNFGLSRYQNETFYQSSQWSPGGTYEAQGISPSWPQMTAYDSIVSMDSGNTTQANNDLSWIEQSYDNGGTPPGESYDWARGQPIESTSSEPVTASWYVQDLLNSTGQTSTLMPAITGQ	1.5 ± 0.1	0.025 ± 0.002	17
